Target: Roseovarius indicus B108 MmtN (the sample called MmtN in the DLS analysis) (Roseovarius indicus B108)
Assay: dynamic light scattering; DynaPro NanoStar, 4 °C, 2 μl of 2.5 mg ml^-1 protein in 10 mM Tris-HCl, 100 mM NaCl, pH 8.0

Substance: Roseovarius indicus B108 MmtN (the sample called MmtN in the DLS analysis) (enzyme)
- stoichiometry N: 3

From paper PMC9135737
